Data as given in article PMC11381367.
Blank lines part the entries; values can stand above or below the substance they belong to.

How the values were obtained:
[1] = tested on: RCC1; test: SPR; conditions: EMSA: 20 mM HEPES pH 7.6, 50 mM NaCl, 5% sucrose, 1 mM DTT, 2.5 mM MgCl2, 0.1 mg/ml BSA, on ice 1 h, SPR: 10 mM HEPES pH 7.4, 150 mM NaCl, 3 mM EDTA, 0.05% …
[2] = target: H2AK119ub nucleosome (dichloroacetone-linked ubiquitin on histone H2A-K119, Xenopus laevis histones) (Xenopus laevis | not stated) (UniProt P06897); test: SPR; Biacore 8K; 5' biotinylated 185 bp nucleosome (about 200 RU) captured on streptavidin on a CM5 chip; RCC1 as analyte in 2-fold dilutions; HBS-EP+ (10 mM HEPES pH 7.4, 150 mM NaCl, 3 mM EDTA, 0.05% Tween-20); 1:1 steady-state affinity fit, two replicates
[3] = target: unmodified nucleosome (Xenopus laevis histones, Widom 601 DNA) (Xenopus laevis); test: as above

Sequence of RCC1 (P18754 whole entry): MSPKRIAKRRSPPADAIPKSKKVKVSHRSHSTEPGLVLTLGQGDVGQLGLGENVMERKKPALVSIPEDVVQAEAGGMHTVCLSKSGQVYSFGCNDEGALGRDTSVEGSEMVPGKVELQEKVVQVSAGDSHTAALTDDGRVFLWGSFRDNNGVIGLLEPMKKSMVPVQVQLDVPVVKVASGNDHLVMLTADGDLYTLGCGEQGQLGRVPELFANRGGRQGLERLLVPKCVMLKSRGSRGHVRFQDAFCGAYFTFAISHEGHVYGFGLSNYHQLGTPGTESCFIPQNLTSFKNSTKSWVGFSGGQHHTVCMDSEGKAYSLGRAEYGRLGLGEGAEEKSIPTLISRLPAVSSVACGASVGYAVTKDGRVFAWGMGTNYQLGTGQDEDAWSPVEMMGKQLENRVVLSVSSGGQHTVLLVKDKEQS

Substance: H2AK119ub nucleosome, 185 bp 601 (SPR)
- Kd ([1]; histone H2AK119ub): 540 nM

Substance: H2BK120ub nucleosome, 185 bp 601 (SPR)
- Kd ([1]; histone H2BK120ub): > 10000 nM

- Kd [2]: 540 nM
- Kd [3]: 730 nM
Substance: RCC1 (from UniProt P18754 1-421) (natural protein)

Substance: unmodified nucleosome, 185 bp 601 (SPR)
- Kd ([1]; unmodified histones): 730 nM
